The target of experiment [1] is T1, streptavidin (UniProt P22629 37-163, limits assumed).
T1 construct: Negative control antigen; cognate antigen of G-strep-1 scFv; also called negative control protein streptavidin
The experiment in a line: ELISA on coated streptavidin, scFv in bacterial supernatant, anti-FLAG-HRP. On the procedure: (§1) Human IL13Rα2-avi (see Example A1), and negative control protein streptavidin were coated into a 384-ELISA well plate at 1 μg/ml in PBS at 4° C. overnight.
(§2) Plates were washed twice with MilliQ water and blocked for 2 h in blocking buffer (phosphate-buffered saline (PBS) supplemented with 0.5% bovine serum albumin (BSA)+0.05% TWEEN 20®). Triple-FLAG-tagged scFv 1E10B9 and mAb47, present in bacterial supernatant, were diluted 1:2, 1:20 and 1:200 in blocking buffer and allowed to bind. An assay control scFv (G-strep-1), specific for streptavidin, was also included. Detection of binding was enabled through an HRP-conjugated anti-FLAG M2 antibody (Sigma-Aldrich #A8592) followed by incubation with 1-step Ultra TMB ELISA substrate (ThermoFisher Scientific #34029). The colorimetric signal development was stopped by adding 1 M sulfuric acid and plates were read at 450 nm. All samples were assayed in duplicates.
Background: An ELISA detects its analyte on a solid surface through an enzyme-linked reagent.

Experiment [2] addresses T2, Biotinylated human IL13Rα2 (hIL13Rα2-avi) (human, UniProt Q14627 29-331, biotinylated in vivo on the Avi-tag by co-expressed BirA).
T2 construct: Produced in Sf9 cells; native signal peptide (aa 1-28) exchanged for the gp67 signal peptide; 42.2 kDa; also called human IL13Rα2-avi; Human ILRα2-avi
T2 sequence: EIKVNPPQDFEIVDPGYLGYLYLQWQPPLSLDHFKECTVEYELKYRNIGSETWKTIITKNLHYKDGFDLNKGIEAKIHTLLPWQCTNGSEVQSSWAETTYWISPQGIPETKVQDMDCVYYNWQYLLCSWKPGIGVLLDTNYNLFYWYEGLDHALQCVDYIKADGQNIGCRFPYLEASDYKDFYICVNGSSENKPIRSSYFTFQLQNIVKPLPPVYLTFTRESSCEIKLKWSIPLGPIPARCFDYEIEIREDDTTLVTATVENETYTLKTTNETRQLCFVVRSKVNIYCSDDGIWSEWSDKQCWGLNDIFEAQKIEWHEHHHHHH
Description: ELISA on coated human IL13Ra2, scFv in bacterial supernatant, anti-FLAG-HRP. How it is done:
as §1, §2

The target of experiment [3] is T2, Biotinylated human IL13Rα2 …. Description: SPR single cycle kinetics, scFv captured. The text has this: (§3) An anti-FLAG M2 antibody (Sigma-Aldrich #F1804), functioning as a capture ligand was immobilized onto all four surfaces of a CM5-S amine sensor chip on a BIACORE® T200 instrument (GE Healthcare) according to manufacturer's recommendations.
In experiment [4] the target is T3, Human IL13Rα2 Fc chimera (hIL13Rα2-Fc, RnD Systems #7147-IR) (human, UniProt Q14627 22-342).
T3 construct: Bought; produced in CHO cells; homodimer through Fc fusion; also called hILRα2-Fc; Human ILRα2-Fc; not shown: Fc part (and any linker) of the bought chimera
T3 sequence: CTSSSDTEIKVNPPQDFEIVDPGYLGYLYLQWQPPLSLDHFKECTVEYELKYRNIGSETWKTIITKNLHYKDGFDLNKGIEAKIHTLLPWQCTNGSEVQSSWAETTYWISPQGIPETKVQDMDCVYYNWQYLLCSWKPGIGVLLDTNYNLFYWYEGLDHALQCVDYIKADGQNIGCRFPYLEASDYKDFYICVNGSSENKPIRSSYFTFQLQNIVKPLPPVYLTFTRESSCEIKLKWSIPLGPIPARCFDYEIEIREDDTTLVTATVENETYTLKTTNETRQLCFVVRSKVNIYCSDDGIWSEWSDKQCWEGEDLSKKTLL
Description: SPR single cycle kinetics, scFv captured.
Excerpt: as §3

Experiment [5] has as its target T4, Mouse IL13Rα2 Fc chimera (mIL13Rα2-Fc, RnD Systems #539-IR) (mouse, UniProt O88786 22-334).
T4 construct: range 22-334; Bought; produced in NS0 cells; homodimer through Fc fusion; also called mILRα2-Fc; Mouse ILRα2-Fc; Fc part of the bought chimera not given
T4 sequence (looked up): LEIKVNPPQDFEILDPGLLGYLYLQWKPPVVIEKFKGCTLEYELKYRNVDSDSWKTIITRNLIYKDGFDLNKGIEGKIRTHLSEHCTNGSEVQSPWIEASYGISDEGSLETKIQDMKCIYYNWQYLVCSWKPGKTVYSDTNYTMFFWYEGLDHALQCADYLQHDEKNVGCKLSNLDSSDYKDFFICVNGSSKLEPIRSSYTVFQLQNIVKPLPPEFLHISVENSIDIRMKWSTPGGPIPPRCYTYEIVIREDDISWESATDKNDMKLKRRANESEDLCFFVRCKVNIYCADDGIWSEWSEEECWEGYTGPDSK
The experiment in a line: SPR single cycle kinetics, scFv captured.
Excerpt: as §3

The target in experiment [6] is T5, Human IL13Rα1-Fc (hIL13Rα1-Fc, RnD Systems #146-IR) (human, UniProt P78552 27-342).
T5 construct: Bought; Fc part of the bought chimera not given
T5 sequence (looked up): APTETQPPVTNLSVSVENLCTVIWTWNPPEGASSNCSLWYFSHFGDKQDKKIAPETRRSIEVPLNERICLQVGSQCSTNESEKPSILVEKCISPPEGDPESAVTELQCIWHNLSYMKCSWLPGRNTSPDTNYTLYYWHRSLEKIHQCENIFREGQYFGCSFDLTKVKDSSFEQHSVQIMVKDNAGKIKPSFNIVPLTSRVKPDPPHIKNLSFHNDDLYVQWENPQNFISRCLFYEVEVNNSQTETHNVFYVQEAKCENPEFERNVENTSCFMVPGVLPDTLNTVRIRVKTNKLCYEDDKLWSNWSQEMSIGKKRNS
The experiment in a line: ELISA, coated hIL13Ra1-Fc, anti-FLAG-HRP. On the procedure: Coating proteins hIL13Rα2-avi (Example A1), hIL13Rα2-Fc (RnD Systems #7147-IR), mIL13Rα2-Fc (RnD Systems #539-IR) and hIL13Rα1-Fc (RnD Systems #146-IR) were diluted to 1 μg/ml in PBS and directly coated into a 384-well ELISA plate. Two negative control proteins, streptavidin and a non-relevant protein, were also coated. Following incubation of plates with coating-proteins overnight at 4° C., plates were washed twice with MilliQ water and blocked for 2 h in blocking buffer (PBS supplemented with 0.5% BSA+0.05% TWEEN 20®). Triple-FLAG-tagged W-ME107 scFv clones present in bacterial supernatant were diluted 1:10 in blocking buffer and allowed to bind. Detection of binding was enabled through an HRP-conjugated anti-FLAG M2 antibody (Sigma-Aldrich #A8592) followed by incubation with 1-step Ultra TMB ELISA substrate (ThermoFisher Scientific #34029). The colorimetric-signal development was stopped by addition of 1 M sulfuric acid and plates were analyzed at […].

Experiment [7] concerns the target T1, streptavidin. The experiment in a line: SPR: scFv captured on anti-FLAG M2, streptavidin injected. How it is done:
An anti-FLAG M2 antibody (Sigma-Aldrich #F1804), functioning as a capture ligand, was immobilized onto all four surfaces of a CM5-S amine sensor chip through ECD/NHS chemistry on a BIACORE® T200 instrument (GE Healthcare) according to manufacturer's recommendations.
The surfaces were regenerated with 10 mM glycin-HCl pH 2.1. All experiments were performed at 25° C. in HBS supplemented with 0.05% TWEEN 20®, pH 7.5.
On the technique in general: In SPR one partner is held on a chip, and binding of the other changes the refractive index at the surface.

In general, Kd refers to a measure of binding affinity in units of concentration. Low values mean a tighter complex, high ones a looser complex. In general, koff refers to the first-order rate constant of dissociation. Lower therefore signals slow dissociation. For orientation: kon means the second-order rate constant of association. A low value points to slower complex formation.

T1 sequence (P22629 37-163 limits assumed): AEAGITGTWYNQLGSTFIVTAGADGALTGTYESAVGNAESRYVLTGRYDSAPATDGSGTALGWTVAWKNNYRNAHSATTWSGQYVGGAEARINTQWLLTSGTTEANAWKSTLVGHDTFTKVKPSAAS

B1: 1E10B9 scFv (scFv)
scFv: QIQLVQSGPELKKPGETVKIYCKASGYSFRDYSVHWVKQAPGKGLKWMGWINTETGEPTYVDEFKGRFAFFLEASANTVYLQISNLKNEDTATYFCDYRFTYWGQGTLVTVSAGGGGSGGGGSGGGGSEIVMTQTPLILSVTIGQPASISCKSSQSVLYSNGKTYLNWLLQRPGQSPKRLIYLVSKLDSGVPDRFTGSGSGTDFTLKISRVEAEDLGVYYCVQGSHFPYTFGGGTKLEIKAAADYKDHDGDYKDHDIDYKDDDDKAAAHHHHHH
notes: also called X-ME107-B9
For the molecule B1, the binding result (in the experiment with streptavidin [1]; in experiment [2]) was “no binding (tested: supernatant diluted 1:2)” in each case.

B2: W-ME107-117 scFv (scFv, V domains shown)
VH: EVQLLESGGGLVQPGGSLRLSCAASGFTFSGSYMSWVRQAPGKGLEWVSSIYGSGGYTYYADSVKGRFTISRDNSKNTLYLQMNSLRAEDTAVYYCARYSPFYMDYWGQGTLVTVSS
VL: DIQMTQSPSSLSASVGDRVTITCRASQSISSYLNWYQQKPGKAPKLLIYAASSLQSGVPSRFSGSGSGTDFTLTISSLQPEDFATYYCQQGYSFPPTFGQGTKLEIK
On to B2, for which, in experiment [3], the equilibrium dissociation constant (Kd) stood at 22 nM, the koff turned out to be 0.0033 s⁻¹ and the on-rate constant (kon) worked out at 150000 M⁻¹ s⁻¹. In experiment [4], this molecule returned an equilibrium dissociation constant (Kd) of 7.8 nM, an off-rate constant (koff) of 0.00035 s⁻¹ and a kon of 45000 M⁻¹ s⁻¹.

B3: W-ME107-27 scFv (scFv, V domains shown)
VH: EVQLLESGGGLVQPGGSLRLSCAASGFTFYGSYMGWVRQAPGKGLEWVSYISGYGGYTYYADSVKGRFTISRDNSKNTLYLQMNSLRAEDTAVYYCARTPYSAYIDYWGQGTLVTVSS
VL: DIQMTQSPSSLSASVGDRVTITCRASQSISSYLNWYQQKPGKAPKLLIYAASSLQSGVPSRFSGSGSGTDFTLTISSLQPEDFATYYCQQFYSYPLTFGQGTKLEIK
notes: Human scFv from SciLifeLib phage libraries
In experiment [3], B3 came in with a Kd of 3.1 nM, an off-rate (koff) of 0.00022 s⁻¹ and a kon of 69000 M⁻¹ s⁻¹. In addition, in experiment [5], the affinity, expressed as Kd, was 2.4 nM; the dissociation rate constant (koff) amounted to 0.00019 s⁻¹; the kon amounted to 80000 M⁻¹ s⁻¹. Moreover, the binding result in experiment [6] is listed as “no binding (tested: supernatant diluted 1:10)”. In addition, the binding result in the experiment with streptavidin [7] is on record as “no binding (tested: 200 nM)”.

B4: W-ME107-75 scFv (scFv, V domains shown)
VH: EVQLLESGGGLVQPGGSLRLSCAASGFTFYSYGMSWVRQAPGKGLEWVSYISGGGSYTYYADSVKGRFTISRDNSKNTLYLQMNSLRAEDTAVYYCARGSYSHYGAHYLDYWGQGTLVTVSS
VL: DIQMTQSPSSLSASVGDRVTITCRASQSISSYLNWYQQKPGKAPKLLIYAASSLQSGVPSRFSGSGSGTDFTLTISSLQPEDFATYYCQQALSSLPTFGQGTKLEIK
notes: as for B3
With B4, the Kd in experiment [3] worked out at 36 nM; in experiment [4], 5.4 nM; in experiment [5], 80 nM. Moreover, the dissociation rate constant (koff) in experiment [3] amounted to 0.0079 s⁻¹; in experiment [4], 0.00026 s⁻¹; in experiment [5], 0.0036 s⁻¹. Also, the association rate constant (kon) in experiment [3] was 220000 M⁻¹ s⁻¹; in experiment [4] it was 48000 M⁻¹ s⁻¹; in experiment [5], 45000 M⁻¹ s⁻¹. The binding result in experiment [6] is on record as “no binding (tested: supernatant diluted 1:10)”; with streptavidin [7], “no binding (tested: 200 nM)”.

B5: W-ME107-10 scFv (scFv, V domains shown)
VH: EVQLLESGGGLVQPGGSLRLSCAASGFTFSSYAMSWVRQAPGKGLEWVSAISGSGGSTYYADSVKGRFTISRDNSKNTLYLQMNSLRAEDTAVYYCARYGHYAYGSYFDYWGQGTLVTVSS
VL: DIQMTQSPSSLSASVGDRVTITCRASQSISSYLNWYQQKPGKAPKLLIYAASSLQSGVPSRFSGSGSGTDFTLTISSLQPEDFATYYCQQDYYLFTFGQGTKLEIK
notes: as for B3
In experiment [3], B5 gave a dissociation constant (Kd) of 3.4 nM, a koff of 0.00017 s⁻¹ and a kon of 51000 M⁻¹ s⁻¹. In experiment [5], this molecule gave an equilibrium dissociation constant (Kd) of 45 nM, an off-rate (koff) of 0.0018 s⁻¹ and a kon of 40000 M⁻¹ s⁻¹. The binding result in experiment [6] was “no binding (tested: supernatant diluted 1:10)”. In addition, in the experiment with streptavidin [7], the binding result is “no binding (tested: 200 nM)”.

These data come from patent publication US20230183364A1 (ELICERA THERAPEUTICS, published 2023).
